For two molecules, Kd results are on record in patent US20140030270A1.

As usually defined, the Kd is the concentration at which binding is half-saturated.

The target of test [1] is cynomolgus monkey PCSK9, V5-6xHIS tagged (cynomolgus monkey). Briefly: KinExA solution equilibrium, PCSK9-coated beads; cyno PCSK9. A general note: Kinetic exclusion samples the free partner from a solution-phase mixture.
For test [2] the target is unchanged. As to the kind of experiment: SPR (Biacore 2000), antibody amine-coupled to the chip, PCSK9 as analyte, pH 7.4. Background: In SPR one partner is held on a chip, and binding of the other changes the refractive index at the surface.
The target is the same in test [3]. Briefly: Biacore solution equilibrium assay, free PCSK9 measured on immobilised 21B12.

B1: 16F12 IgG4 (16F12, anti-PCSK9 huIgG4) (antibody, V domains shown)
VH: QVHLVESGGGVVQPGRSLRLSCAASGFTFNSFGMHWVRQAPGKGLEWVALIWSDGSDEYYADSVKGRFTISRDNSKNTLYLQMNSLRAEDTAVYYCARAIAALYYYYGMDVWGQGTTVTVSS
VL: QSVLTQPPSVSAAPGQKVTISCSGSSSNIGNNFVSWYQQLPGTAPKLLIYDYNKRPSGIPDRFSGSKSGTSATLGITGLQTGDEADYYCGTWDSSLSAYVFGTGTRVTVLQ
Take B1: the Kd in test [1] is 16 pM; in test [2], 870 pM.

B2: 21B12 IgG4 (21B12, anti-PCSK9 huIgG4) (antibody, V domains shown)
VH: QVQLVQSGAEVKKPGASVKVSCKASGYTLTSYGISWVRQAPGQGLEWMGWVSFYNGNTNYAQKLQGRGTMTTDPSTSTAYMELRSLRSDDTAVYYCARGYGMDVWGQGTTVTVSS
VL: QSALTQPASVSGSPGQSITISCTGTSSDVGGYNSVSWYQQHPGKAPKLMIYEVSNRPSGVSNRFSGSKSGNTASLTISGLQAEDEADYYCNSYTSTSMVFGGGTKLTVLQ
On to B2, for which the Kd in test [3] was 11 pM; in test [2] it was 360 pM.
